Results: paper PMC11293385 (Genes & Development, 2024)
One block for each binder: values may come before it.

B4: His-tagged IκBζ(404–718) (domain or fragment, human, UniProt Q9BYH8 404-718, looked up)
chain: MGNPMNTTQLGKSLFQWQVEQEESKLANISQDQFLSKDADGDTFLHIAVAQGRRALSYVLARKMNALHMLDIKEHNGQSAFQVAVAANQHLIVQDLVNIGAQVNTTDCWGRTPLHVCAEKGHSQVLQAIQKGAVGSNQFVDLEATNYDGLTPLHCAVIAHNAVVHELQRNQQPHSPEVQELLLKNKSLVDTIKCLIQMGAAVEAKDRKSGRTALHLAAEEANLELIRLFLELPSCLSFVNAKAYNGNTALHVAASLQYRLTQLDAVRLLMRKGADPSTRNLENEQPVHLVPDGPVGEQIRRILKGKSIQQRAPPY

How the values were obtained:
[1] = target: T1, p50(1–376) homodimer (murine, UniProt P25799 1-376); assay: native gel or EMSA
T1 sequence (looked up): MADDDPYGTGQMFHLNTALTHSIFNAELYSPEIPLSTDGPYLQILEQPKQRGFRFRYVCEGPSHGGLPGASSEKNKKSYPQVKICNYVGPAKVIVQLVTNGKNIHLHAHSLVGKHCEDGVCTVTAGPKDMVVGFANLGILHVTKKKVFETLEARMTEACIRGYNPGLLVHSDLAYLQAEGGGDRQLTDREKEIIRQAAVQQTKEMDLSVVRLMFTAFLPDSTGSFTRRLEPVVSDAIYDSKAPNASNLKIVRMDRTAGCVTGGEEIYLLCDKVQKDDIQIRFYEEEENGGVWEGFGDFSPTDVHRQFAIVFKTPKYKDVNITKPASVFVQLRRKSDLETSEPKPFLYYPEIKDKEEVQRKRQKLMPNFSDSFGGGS

[2] = target: p50(1–376):RelA(1–325) heterodimer (murine, UniProt P25799 1-376; Q04207 1-325); assay: native gel or EMSA
Sequence of p50(1–376):RelA(1–325) heterodimer (Q04207 1-325, one chain of several): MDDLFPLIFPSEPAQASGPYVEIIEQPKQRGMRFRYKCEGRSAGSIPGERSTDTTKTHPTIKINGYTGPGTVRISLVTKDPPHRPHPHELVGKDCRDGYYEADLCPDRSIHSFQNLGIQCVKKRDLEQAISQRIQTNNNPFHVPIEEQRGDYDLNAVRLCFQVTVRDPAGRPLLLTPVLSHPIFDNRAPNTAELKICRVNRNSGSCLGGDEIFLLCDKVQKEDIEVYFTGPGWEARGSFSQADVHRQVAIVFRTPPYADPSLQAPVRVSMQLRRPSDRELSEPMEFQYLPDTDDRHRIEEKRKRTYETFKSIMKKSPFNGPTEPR

[3] = target: the molecule itself; assay: crystal structure
[4] = target: B4; assay: SPR
[5] = target: T2, p50(1–435) homodimer (murine, UniProt P25799 1-435); assay: SPR
T2 sequence (looked up): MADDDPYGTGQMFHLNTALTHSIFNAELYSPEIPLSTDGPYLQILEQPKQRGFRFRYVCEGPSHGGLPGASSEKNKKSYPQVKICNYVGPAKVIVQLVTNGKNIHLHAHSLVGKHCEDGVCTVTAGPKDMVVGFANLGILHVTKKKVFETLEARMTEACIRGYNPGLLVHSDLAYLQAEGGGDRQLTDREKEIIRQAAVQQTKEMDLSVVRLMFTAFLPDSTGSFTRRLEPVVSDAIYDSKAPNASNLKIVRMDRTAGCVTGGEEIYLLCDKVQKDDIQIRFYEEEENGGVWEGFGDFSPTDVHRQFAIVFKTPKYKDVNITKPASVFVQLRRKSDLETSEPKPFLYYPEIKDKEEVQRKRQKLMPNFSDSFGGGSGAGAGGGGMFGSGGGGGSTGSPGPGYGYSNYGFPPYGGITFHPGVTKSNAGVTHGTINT

[6] = target: T3, p50(39–363) homodimer (murine, UniProt P25799 39-363); assay: SPR
T3 sequence (looked up): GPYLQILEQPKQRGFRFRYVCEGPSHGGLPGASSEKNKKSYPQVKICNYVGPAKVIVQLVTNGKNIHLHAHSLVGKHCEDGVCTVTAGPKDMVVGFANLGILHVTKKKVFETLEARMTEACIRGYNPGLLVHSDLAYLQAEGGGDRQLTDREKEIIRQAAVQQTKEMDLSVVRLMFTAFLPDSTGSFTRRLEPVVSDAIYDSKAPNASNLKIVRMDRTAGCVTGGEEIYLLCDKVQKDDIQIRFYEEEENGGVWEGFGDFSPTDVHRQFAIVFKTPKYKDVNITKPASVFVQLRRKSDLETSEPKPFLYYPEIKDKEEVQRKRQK

[7] = target: NF-kB p50;GST-IkBzeta ankyrin repeat domain (Mus musculus;Homo sapiens, UniProt P25799;Q9BYH8 1-376;404-718, |); assay: EMSA supershift

binding result [1]: binds | binding result [2]: binds
B1: GST-IκBζ(404–718) (domain or fragment, human, UniProt Q9BYH8 404-718, looked up)
chain: MGNPMNTTQLGKSLFQWQVEQEESKLANISQDQFLSKDADGDTFLHIAVAQGRRALSYVLARKMNALHMLDIKEHNGQSAFQVAVAANQHLIVQDLVNIGAQVNTTDCWGRTPLHVCAEKGHSQVLQAIQKGAVGSNQFVDLEATNYDGLTPLHCAVIAHNAVVHELQRNQQPHSPEVQELLLKNKSLVDTIKCLIQMGAAVEAKDRKSGRTALHLAAEEANLELIRLFLELPSCLSFVNAKAYNGNTALHVAASLQYRLTQLDAVRLLMRKGADPSTRNLENEQPVHLVPDGPVGEQIRRILKGKSIQQRAPPY

Kd [4]: 0.0912 nM
B2: murine p50 dimerization domain homodimer (residues 245–376) (domain or fragment, UniProt P25799 245-376, looked up)
chain: ASNLKIVRMDRTAGCVTGGEEIYLLCDKVQKDDIQIRFYEEEENGGVWEGFGDFSPTDVHRQFAIVFKTPKYKDVNITKPASVFVQLRRKSDLETSEPKPFLYYPEIKDKEEVQRKRQKLMPNFSDSFGGGS
binding result [3]: binds

Continued, binder first:

B3: RelA(191–290)–p50(350–376) chimeric fusion protein (other, murine, UniProt Q04207 191-290, looked up)
chain: TAELKICRVNRNSGSCLGGDEIFLLCDKVQKEDIEVYFTGPGWEARGSFSQADVHRQVAIVFRTPPYADPSLQAPVRVSMQLRRPSDRELSEPMEFQYLPEIKDKEEVQRKRQKLMPNFSDSFGGGS
Kd [4]: 0.615 nM

Binder: B4
binding result [5]: binds | binding result [6]: binds

B5: human IL-6 kB DNA probe (dsDNA)
DNA 1: AGATTTATCAAATGTGGGATTTTCCCATGAGTCTCAATATT
DNA 2: AATATTGAGACTCATGGGAAAATCCCACATTTGATAAATCT
binding result [7]: binds
